{
  "source": "patent US20090221680",
  "target": "thrombin (alpha-thrombin) (Homo sapiens) (UniProt P00734+P00734)",
  "assay": "filter",
  "data": [
    {"sequence": "ACTGCCTAGGTTGGGTAGGGTGGTGGCAGT [ARC2695]", "values": [
      {"measurement": "Kd", "setting": "2'-OMe inosine at 20, rest DNA [20]", "value": 2080, "unit": "pM"}
    ]},
    {"sequence": "ACTGCCTAGGTTGGGTAGGGTGGTGGCAGT [ARC2686]", "values": [
      {"measurement": "Kd", "setting": "deoxyinosine at 29 [29]", "value": 189, "unit": "pM"}
    ]},
    {"sequence": "ACTGCCTAGGTTGGGTAGGGTGGTGGCAGT [ARC2685]", "values": [
      {"measurement": "Kd", "setting": "deoxyinosine at 26 [26]", "value": 226, "unit": "pM"}
    ]},
    {"sequence": "ACTGCCTAGGTTGGGTAGGGTGGTGGCAGT [ARC2692]", "values": [
      {"measurement": "Kd", "setting": "2'-OMe inosine at 15, rest DNA [15]", "value": 1840, "unit": "pM"}
    ]},
    {"sequence": "ACTGCCTAGGTTGGGTAGGGTGGTGGCAGT [ARC2691]", "values": [
      {"measurement": "Kd", "setting": "2'-OMe inosine at 14, rest DNA [14]", "value": 2280, "unit": "pM"}
    ]},
    {"sequence": "ACTGCCTAGGTTGGGTAGGGTGGTGGCAGT [ARC2673]", "values": [
      {"measurement": "Kd", "setting": "deoxyinosine at 4 [deoxyinosine at 4 (parent base G)]", "value": 207, "unit": "pM"}
    ]},
    {"sequence": "ACTGCCTAGGTTGGGTAGGGTGGTGGCAGT [ARC2698]", "values": [
      {"measurement": "Kd", "setting": "2'-OMe inosine at 25, rest DNA [25 = 2'-OMe inosine (written as parent base G), rest DNA]", "value": 165, "unit": "pM"}
    ]},
    {"sequence": "ACTGCCTAGGTTGGGTAGGGTGGTGGCAGT [ARC2674]", "values": [
      {"measurement": "Kd", "setting": "deoxyinosine at 9 [9]", "value": 452, "unit": "pM"}
    ]},
    {"sequence": "ACTGCCTAGGTTGGGTAGGGTGGTGGCAGT [ARC2677]", "values": [
      {"measurement": "Kd", "setting": "deoxyinosine at 14 [14]", "value": 199, "unit": "pM"}
    ]},
    {"sequence": "ACTGCCTAGGTTGGGTAGGGTGGTGGCAGT [ARC2683]", "values": [
      {"measurement": "Kd", "setting": "deoxyinosine at 23 [23]", "value": 151, "unit": "pM"}
    ]},
    {"sequence": "ACTGCCTAGGTTGGGTAGGGTGGTGGCAGT [ARC2679]", "values": [
      {"measurement": "Kd", "setting": "deoxyinosine at 18 [18]", "value": 355, "unit": "pM"}
    ]},
    {"sequence": "ACTGCCTAGGTTGGGTAGGGTGGTGGCAGT [ARC2699]", "values": [
      {"measurement": "Kd", "setting": "2'-OMe inosine at 26, rest DNA [26 = 2'-OMe inosine (written as parent base G), rest DNA]", "value": 128, "unit": "pM"}
    ]},
    {"sequence": "ACTGCCTAGGTTGGGTAGGGTGGTGGCAGT [ARC2680]", "values": [
      {"measurement": "Kd", "setting": "deoxyinosine at 19 [19]", "value": 240, "unit": "pM"}
    ]},
    {"sequence": "ACTGCCTAGGTTGGGTAGGGTGGTGGCAGT [ARC2675]", "values": [
      {"measurement": "Kd", "setting": "deoxyinosine at 10 [10]", "value": 2030, "unit": "pM"}
    ]},
    {"sequence": "ACTGCCTAGGTTGGGTAGGGTGGTGGCAGT [ARC2687]", "values": [
      {"measurement": "Kd", "setting": "2'-OMe inosine at 4, rest DNA [4]", "value": 220, "unit": "pM"}
    ]},
    {"sequence": "ACTGCCTAGGTTGGGTAGGGTGGTGGCAGT [ARC2681]", "values": [
      {"measurement": "Kd", "setting": "deoxyinosine at 20 [20]", "value": 334, "unit": "pM"}
    ]},
    {"sequence": "ACTGCCTAGGTTGGGTAGGGTGGTGGCAGT [ARC2676]", "values": [
      {"measurement": "Kd", "setting": "deoxyinosine at 13 [13]", "value": 698, "unit": "pM"}
    ]},
    {"sequence": "ACTGCCTAGGTTGGGTAGGGTGGTGGCAGT [ARC2700]", "values": [
      {"measurement": "Kd", "setting": "2'-OMe inosine at 29, rest DNA [29 = 2'-OMe inosine (written as parent base G), rest DNA]", "value": 46, "unit": "pM"}
    ]},
    {"sequence": "ACTGCCTAGGTTGGGTAGGGTGGTGGCAGT [ARC2697]", "values": [
      {"measurement": "Kd", "setting": "2'-OMe inosine at 23, rest DNA [23]", "value": 1560, "unit": "pM"}
    ]},
    {"sequence": "ACTGCCTAGGTTGGGTAGGGTGGTGGCAGT [ARC2684]", "values": [
      {"measurement": "Kd", "setting": "deoxyinosine at 25 [25]", "value": 188, "unit": "pM"}
    ]},
    {"sequence": "ACTGCCTAGGTTGGGTAGGGTGGTGGCAGT [ARC2678]", "values": [
      {"measurement": "Kd", "setting": "deoxyinosine at 15 [15]", "value": 1430, "unit": "pM"}
    ]},
    {"sequence": "ACTGCCTAGGTTGGGTAGGGTGGTGGCAGT [ARC2682]", "values": [
      {"measurement": "Kd", "setting": "deoxyinosine at 22 [22]", "value": 1300, "unit": "pM"}
    ]}
  ]
}
